The results in this text go back to patent publication US11912782B2, “BCMA monoclonal antibody-drug conjugate” (MedImmune, LLC, priority 2017, dated 2024).

Entries after “also recorded” stand apart in the source; their conditions may differ.

Assay [1] concerns H929 multiple myeloma cells. Description: Internalization by FACS on H929 cells. In kind it is cell-based. As to conditions: compared to J6M0 and the LO antibodies. As to the method: The ability of the 15B2GL antibody and LO clones of 15B2GL to bind, internalize, and kill H929 multiple myeloma cells in vitro was assessed using Fab-ZAP and by FACS binding to endogenous BCMA expressed on cell lines as described above. Briefly, antibodies were incubated with 200,000 cells for 30 minutes at 4° C. followed by two washes with PBS+2% FBS. Cells were resuspended in 100 uL cold PBS+2% FBS and kept at 4° C. At certain timepoints, cells were washed and resuspended in warm RPMI+10% FBS and placed into a 37° C. incubator, 5% CO2. At the end of the experiment, cells were washed and then incubated with Alexa-Fluor® 647-labeled secondary antibodies at 4° C., followed by two washes in PBS+2% FBS. Cells were resuspended in 200 μL PBS+2% FBS+DAPI and antibody binding to live cells was analyzed using a Becton Dickinson Biosciences LSRII cytometer.
(In general: A flow cytometer gives signals particle by particle.)

Assay [2] has as its target T1, monomeric human sBCMA (Homo sapiens, UniProt Q02223).
T1 construct: is comprised of the entire extracellular domain of the molecule; purchased GenScript
T1 sequence (Q02223 1-54 limits assumed): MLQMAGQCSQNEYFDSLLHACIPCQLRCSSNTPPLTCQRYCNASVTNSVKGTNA
As to the kind of experiment: Kinetics/affinity measurement by SPR (BioRad ProteOn XPR36), antibody captured by anti-Fc, sBCMA flowed over. It counts as binding. As to conditions: sBCMA 100-6.25 nM. As to the method: The binding of 15B2GL monoclonal antibody and optimized clones I09, L15, P10, N22, and M02 (described in Example 1) was assessed using monomeric human sBCMA (GenScript, Piscataway, N.J.) using a ProteOn™ XPR36 instrument (Bio-Rad, Hercules, Calif.). The binding of J6M0 also was assessed for comparison. Standard amine coupling was used to immobilize 25 μg/ml anti-Fc polyclonal antibody (Jackson ImmunoResearch, West Grove, Pa.) prepared in 10 mM sodium acetate buffer (pH 4.5) to the surface of a ProteOn™ GLC biosensor chip (Bio-Rad, Hercules, Calif.) pre-activated with 20 mM EDAC (1-ethyl-3-(3-dimethylaminopropyl)carbodiimide hydrochloride) and 5 mM Sulfo-NHS (N-hydroxysulfosuccinimide) at a density of ˜200-600 resonance units (RU). 15B2GL, I09, L15, P10, N22, M02, and J6M0 were subsequently injected at a concentration of 1 μg/ml for capture by the immobilized anti-Fc polyclonal antibody. The sensorgram was recorded by flowing two-fold serial dilutions of sBCMA prepared in PBS (pH 7.4) with 0.005% (v/v) Tween®-20, ranging from 100-6.25 nM, over the captured surface for 150 seconds at 75 μL/minute with dissociation time of 600 seconds. ProteOn™ data analysis software was used to analyze the data.

For assay [3], the system named is cynomolgus monkey BCMA. Description: FACS binding to Ad293 cells stably expressing cynomolgus BCMA. As to conditions: Ad293 cells expressing cynoBCMA. As to the method:
(§1) Antibodies 4679, 756, and 15B2GL (as described below) were analyzed by FACS to evaluate binding of antibodies to human BCMA, cynomolgus monkey BCMA, TACI, and BAFF-R using recombinant forms of the receptors stably expressed on Ad293 cells. Binding assays were performed by incubating antibodies 4679, 756, and 15B2GL with 200,000 cells at 4° C. for 45 minutes followed by two washes with PBS+2% FBS. Cells were then incubated with Alexa-Fluor® 647-labeled secondary antibodies at 4° C., followed by two washes in PBS+2% FBS. Anti-BAFF-R, anti-TACI, and anti-human BCMA-APC labeled antibodies were added according to manufacturer's recommended dilution in control wells. Cells were resuspended in 200 uL PBS+2% FBS+DAPI and antibody binding to live cells was analyzed using a Becton Dickinson™ Biosciences LSRII cytometer.

Assay [4] deals with T2, BAFF-R (Homo sapiens, UniProt Q96RJ3).
T2 construct: expressed in transfected cells
T2 sequence (Q96RJ3 1-184): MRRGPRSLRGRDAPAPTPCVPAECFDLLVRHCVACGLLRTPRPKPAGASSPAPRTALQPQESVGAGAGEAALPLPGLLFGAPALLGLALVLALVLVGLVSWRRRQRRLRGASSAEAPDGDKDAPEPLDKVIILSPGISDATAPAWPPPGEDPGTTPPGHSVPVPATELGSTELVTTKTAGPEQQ
As to the kind of experiment: FACS binding to Ad293 cells stably expressing BAFF-R. As to the method:
as §1

For assay [5], the target named is T3, TACI (Homo sapiens, UniProt O14836).
T3 construct: expressed in transfected cells
T3 sequence (O14836 1-293): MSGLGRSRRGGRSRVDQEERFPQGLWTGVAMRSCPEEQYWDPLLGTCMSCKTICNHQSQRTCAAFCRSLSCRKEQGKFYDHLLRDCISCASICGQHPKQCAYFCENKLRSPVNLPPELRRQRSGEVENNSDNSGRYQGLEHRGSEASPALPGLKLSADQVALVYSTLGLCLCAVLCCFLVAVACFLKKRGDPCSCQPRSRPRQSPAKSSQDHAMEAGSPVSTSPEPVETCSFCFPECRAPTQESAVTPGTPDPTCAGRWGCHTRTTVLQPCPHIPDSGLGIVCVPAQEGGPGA
As to the kind of experiment: FACS binding to Ad293 cells stably expressing TACI. As to the method: as §1

B1: 15B2GL: germline form of anti-BCMA monoclonal antibody 15B2; VH SEQ ID NO: 7, VL SEQ ID NO: 8 (antibody, V domains shown)
VH: EVQLVESGGGLVKPGGSLRLSCAASGFTFRSYSMNWVRQAPGKGLEWVSSISGSSNYIYYADSVKGRFTISRDNAKNSLYLQMNSLRAEDTAVYYCARGGNYYVEYFQYWGQGTLVTVSS
VL: EIVLTQSPGTLSLSPGERATLSCRASQYISSNYLAWYQQKPGQAPRLLIYGASNRATGIPDRFSGSGSGTDFTLTISRLEPEDFAVYYCQQYGSSPITFGQGTKLEIK
For B1, the Internalization entry in assay [1] was “unique and rapid internalization”. In addition, in assay [2], the Koff is reported as 2.27E−02 and the Kon is reported as 3.73E+05. Also, in assay [3], the Cynomolgus cross-reactivity result is recorded as “cynomolgus cross-reactive; also recorded: cyno-cross reactive”. Also, the “Binding to BAFF-R” value in assay [4] is on record as “did not bind”. The “Binding to TACI” value in assay [5] is “did not bind”.
